Test results from article PMC5046194.

Target: recombinant Ku70 (human) (UniProt P12956)
Assay: not stated; complex of recombinant Ku70 and IN; method of the Kd not told

UniProt P12956, sequence (P12956 whole entry): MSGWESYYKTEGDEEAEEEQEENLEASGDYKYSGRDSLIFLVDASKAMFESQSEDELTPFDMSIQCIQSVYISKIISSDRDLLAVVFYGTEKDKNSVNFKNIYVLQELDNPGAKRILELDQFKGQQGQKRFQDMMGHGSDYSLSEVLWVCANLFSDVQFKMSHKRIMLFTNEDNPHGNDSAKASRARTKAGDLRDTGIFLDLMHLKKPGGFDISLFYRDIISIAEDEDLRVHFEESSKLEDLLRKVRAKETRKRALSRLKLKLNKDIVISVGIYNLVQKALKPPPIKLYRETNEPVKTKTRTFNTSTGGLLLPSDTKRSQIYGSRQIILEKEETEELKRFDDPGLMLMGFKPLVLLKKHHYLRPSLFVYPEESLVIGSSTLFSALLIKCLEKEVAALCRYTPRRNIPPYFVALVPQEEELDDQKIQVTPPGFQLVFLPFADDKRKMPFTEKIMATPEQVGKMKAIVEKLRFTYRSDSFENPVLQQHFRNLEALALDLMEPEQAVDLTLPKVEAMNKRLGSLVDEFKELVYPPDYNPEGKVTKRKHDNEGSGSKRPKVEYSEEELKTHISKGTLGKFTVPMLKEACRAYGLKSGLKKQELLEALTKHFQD

Substance: recombinant His6-IN, wild type (HIV-1 integrase, abstract P13) (enzyme)
- Kd: 70 nM
